Assay results taken from the supplement of paper PMC7877785.
± gives the uncertainty stated by the source.

Assay: self-splicing fitness, log relative to wild type (ln ratio); higher = more splicing; Tetrahymena group I intron in knt gene, E. coli kanamycin selection, DiMSum; sequences stand for … in CUCUCU…GGAGGGAAAAGUUAUCAGGCAUGCACCUGGUAGCUAGUCUUUAAACCAAUAGAUUGCAUCGGUUUAAAAGGCAAGACCGUCAAAUUGCGGGAAAGGGGUCAACAGCCGUUCAGUACCAAGUCUCAGGGGAAACUUUGAGAUGGCCUUGCAAAGGGUAUGGUAAUAAGCUGACGGACAUGGUCCUAACCACGCAGCCAAGUCCUAAGUCAACAGAUCUUCUGUUGAUAUGGAUGCAGUUCACAGACUAAAUGUCGGUCGGGGAAGAUGUAUUCUUCUCAUAAGAUAUAGUCGGACCUCUCCUUAAUGGGAGCUAGCGGAUGAAGUGAUGCAACACUGGAGCCGCUGGGAACUAAUUUGUAUGCGAAAGUAUAUUGAUUAGUUUUGGAGUACUCGUGGUCG
Outline: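 Fitness was computed with DiMSum as the error-weighted combination of replicate fold changes, kanamycin versus none, each normalised to wild type. The library randomised all eight intron nucleotides of the P1ex region, with the intron placed in the knt kanamycin-resistance gene on pET-22b(+) in E. coli BL21(DE3). Six replicate transformations were grown overnight at 37°C or 30°C on LB agar with or without 25 μg/mL kanamycin, plus 100 μg/mL carbenicillin, 50 μM IPTG and 0.2% rhamnose. Pooled colonies were amplicon-sequenced on an Illumina HiSeq 2500.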

Sequence	self-splicing fitness (ln) (30 °C)	self-splicing fitness (ln) (37 °C)
GUUCAGCAAUAUUACGGCCG	-2.57 ± 0.24	-0.72 ± 0.17
GUUCAGCAAUAUUACGGCGG	-4.13 ± 0.47	-2.06 ± 0.38
GUUCAGCAAUAUUACGGUCA	-1.42 ± 0.12	-0.536 ± 0.086
GUUCAGCAAUAUUACGGUUU	-0.523 ± 0.052	-0.0386 ± 0.061
GUUCAGCAAUAUUACGUCCA	-0.981 ± 0.17	-1.05 ± 0.21
GUUCAGCAAUAUUACGUCGU	-0.64 ± 0.098	0.241 ± 0.11
GUUCAGCAAUAUUACGUUGU	-1.68 ± 0.096	-0.287 ± 0.11
GUUGAGCAAUAUUACGAAUA	-1.6 ± 0.16	-1.44 ± 0.18
GUUGAGCAAUAUUACGACUU	-2.53 ± 0.2	-1.92 ± 0.21
GUUGAGCAAUAUUACGAGAC	–	-0.388 ± 0.31
GUUGAGCAAUAUUACGAUAA	-3.96 ± 0.46	-1.94 ± 0.26
GUUGAGCAAUAUUACGAUAU	-2.32 ± 0.13	-1.31 ± 0.12
GUUGAGCAAUAUUACGAUUG	-4.05 ± 0.32	-1.87 ± 0.27
GUUGAGCAAUAUUACGCCGC	-3.06 ± 0.44	-2.15 ± 0.5
GUUGAGCAAUAUUACGCGCG	-1.82 ± 0.21	-1.51 ± 0.23
GUUGAGCAAUAUUACGGAAU	-3.08 ± 0.31	–
GUUGAGCAAUAUUACGGGAG	–	-2.9 ± 0.38
GUUGAGCAAUAUUACGGGUC	-2.23 ± 0.26	-1.89 ± 0.28
GUUGAGCAAUAUUACGGUUC	-3.63 ± 0.4	-1.58 ± 0.26
GUUGAGCAAUAUUACGUAGA	–	-0.549 ± 0.24
GUUGAGCAAUAUUACGUAGG	-3.49 ± 0.22	-2.93 ± 0.37
GUUGAGCAAUAUUACGUAUC	-2.91 ± 0.15	-1.15 ± 0.15
GUUGAGCAAUAUUACGUUUG	-4.75 ± 0.32	-2.6 ± 0.24
GUUUAGCAAUAUUACGAAAG	-1.07 ± 0.18	-0.341 ± 0.22
GUUUAGCAAUAUUACGACCA	-1.56 ± 0.35	-0.943 ± 0.35

Sequence	self-splicing fitness (ln) (30 °C)	self-splicing fitness (ln) (37 °C)
GUUUAGCAAUAUUACGACGA	-0.271 ± 0.17	-0.957 ± 0.24
GUUUAGCAAUAUUACGACUG	-4.08 ± 0.39	-0.416 ± 0.23
GUUUAGCAAUAUUACGAUGC	-0.832 ± 0.089	0.32 ± 0.12
GUUUAGCAAUAUUACGAUUA	-1.93 ± 0.16	-1.01 ± 0.2
GUUUAGCAAUAUUACGCCAA	-1.57 ± 0.27	-1.58 ± 0.24
GUUUAGCAAUAUUACGCCGA	-2.93 ± 0.4	–
GUUUAGCAAUAUUACGCUAA	-3.38 ± 0.32	-1.4 ± 0.21
GUUUAGCAAUAUUACGCUCC	-1.82 ± 0.37	1.01 ± 0.34
GUUUAGCAAUAUUACGGACG	-1.76 ± 0.15	-0.693 ± 0.15
GUUUAGCAAUAUUACGGGAA	-2.96 ± 0.23	-2.04 ± 0.19
GUUUAGCAAUAUUACGGGGG	-3.68 ± 0.37	-1.82 ± 0.26
GUUUAGCAAUAUUACGGUUA	-1.68 ± 0.18	-0.49 ± 0.12
GUUUAGCAAUAUUACGUACA	-0.582 ± 0.2	-0.508 ± 0.22
GUUUAGCAAUAUUACGUGCA	-0.885 ± 0.099	-0.958 ± 0.11
GUUUAGCAAUAUUACGUUUC	-2.17 ± 0.21	-2.07 ± 0.23
UAAAAGCAAUAUUACGACAC	-1.88 ± 0.15	-0.594 ± 0.17
UAAAAGCAAUAUUACGAUCG	0.0746 ± 0.077	0.385 ± 0.1
UAAAAGCAAUAUUACGCCUA	0.161 ± 0.073	-0.367 ± 0.081
UAAAAGCAAUAUUACGCUAU	-2.11 ± 0.15	-2.2 ± 0.19
UAAAAGCAAUAUUACGCUCA	-0.334 ± 0.11	0.128 ± 0.12
UAAAAGCAAUAUUACGCUCG	-0.628 ± 0.084	0.0432 ± 0.099
UAAAAGCAAUAUUACGGCCA	0.0708 ± 0.15	0.573 ± 0.19
UAAAAGCAAUAUUACGGCGC	-1.64 ± 0.12	-0.483 ± 0.13
UAAAAGCAAUAUUACGGUAA	-1.94 ± 0.14	-0.97 ± 0.098
UAAAAGCAAUAUUACGUCAC	-3 ± 0.2	-2.25 ± 0.28

Sequence	self-splicing fitness (ln) (30 °C)	self-splicing fitness (ln) (37 °C)
UAAAAGCAAUAUUACGUCAU	-3.62 ± 0.14	-1.88 ± 0.1
UAAAAGCAAUAUUACGUGAC	–	-3.43 ± 0.46
UAACAGCAAUAUUACGAAUG	-0.844 ± 0.085	-0.788 ± 0.098
UAACAGCAAUAUUACGACAC	-3.35 ± 0.16	-0.676 ± 0.11
UAACAGCAAUAUUACGACGU	-1.16 ± 0.071	-0.452 ± 0.091
UAACAGCAAUAUUACGAGCA	-1.22 ± 0.1	-0.317 ± 0.1
UAACAGCAAUAUUACGAGGG	-3.58 ± 0.2	-3.12 ± 0.22
UAACAGCAAUAUUACGAUAG	-1.21 ± 0.11	-0.506 ± 0.12
UAACAGCAAUAUUACGAUGC	-3.84 ± 0.33	-2.35 ± 0.26
UAACAGCAAUAUUACGCAUA	-0.955 ± 0.075	-0.0703 ± 0.069
UAACAGCAAUAUUACGCCAA	-3.04 ± 0.19	-1.38 ± 0.14
UAACAGCAAUAUUACGCGGG	-2.44 ± 0.1	-1.18 ± 0.078
UAACAGCAAUAUUACGCUAG	-1.81 ± 0.071	-0.992 ± 0.08
UAACAGCAAUAUUACGGACU	-1.02 ± 0.064	-0.504 ± 0.089
UAACAGCAAUAUUACGGCGG	-0.643 ± 0.053	-0.105 ± 0.068
UAACAGCAAUAUUACGGCGU	-1.79 ± 0.11	-1.01 ± 0.1
UAACAGCAAUAUUACGGUCC	-2.94 ± 0.15	-1.99 ± 0.19
UAACAGCAAUAUUACGUGCU	-3.33 ± 0.16	-2.28 ± 0.16
UAACAGCAAUAUUACGUUGU	-4.18 ± 0.16	-2.67 ± 0.14
UAAGAGCAAUAUUACGAGAA	–	-1.68 ± 0.46
UAAGAGCAAUAUUACGAGCU	-2.93 ± 0.3	-2.6 ± 0.44
UAAGAGCAAUAUUACGAGGC	–	-1.97 ± 0.41
UAAGAGCAAUAUUACGAGUA	-2.94 ± 0.19	-2.66 ± 0.21
UAAGAGCAAUAUUACGAUUU	-2.44 ± 0.17	-0.0704 ± 0.12
UAAGAGCAAUAUUACGCAUC	-4.23 ± 0.3	-3.46 ± 0.37

Sequence	self-splicing fitness (ln) (30 °C)	self-splicing fitness (ln) (37 °C)
UAAGAGCAAUAUUACGCGCC	–	-1.6 ± 0.38
UAAGAGCAAUAUUACGGACA	-1.78 ± 0.25	-2.31 ± 0.35
UAAGAGCAAUAUUACGGCUU	-2.3 ± 0.2	-1.44 ± 0.22
UAAGAGCAAUAUUACGGGGG	-2.94 ± 0.22	–
UAAGAGCAAUAUUACGGGUC	–	-1.7 ± 0.41
UAAGAGCAAUAUUACGUACA	-2.95 ± 0.37	-1.59 ± 0.4
UAAGAGCAAUAUUACGUCGU	-4.06 ± 0.31	-3.11 ± 0.43
UAAGAGCAAUAUUACGUCUG	-1.54 ± 0.093	-0.00255 ± 0.11
UAAGAGCAAUAUUACGUGUU	-3.32 ± 0.18	-2.96 ± 0.3
UAAGAGCAAUAUUACGUUGA	–	-1.97 ± 0.19
UAAGAGCAAUAUUACGUUGU	-1.95 ± 0.2	-0.367 ± 0.31
UAAUAGCAAUAUUACGAUUA	-1.04 ± 0.13	0.0261 ± 0.14
UAAUAGCAAUAUUACGCAAU	-3.5 ± 0.23	-2.4 ± 0.26
UAAUAGCAAUAUUACGCCUC	-2.77 ± 0.35	-1.53 ± 0.38
UAAUAGCAAUAUUACGCGUC	-2.88 ± 0.36	-2 ± 0.38
UAAUAGCAAUAUUACGCUAG	-2.46 ± 0.12	-0.773 ± 0.14
UAAUAGCAAUAUUACGCUUC	–	-1.72 ± 0.29
UAAUAGCAAUAUUACGGAAU	-2.77 ± 0.2	-1.76 ± 0.2
UAAUAGCAAUAUUACGGAGG	-3.17 ± 0.24	-2.83 ± 0.4
UAAUAGCAAUAUUACGGGCU	-3.28 ± 0.27	-2.16 ± 0.19
UAAUAGCAAUAUUACGGGGU	-3.73 ± 0.42	-1.38 ± 0.45
UAAUAGCAAUAUUACGGUAA	–	-1.04 ± 0.28
UAAUAGCAAUAUUACGGUCC	-2.53 ± 0.33	–
UAAUAGCAAUAUUACGGUUU	-2.92 ± 0.19	-1.39 ± 0.18
UAAUAGCAAUAUUACGUACG	-2.13 ± 0.13	-1.16 ± 0.17
